Assay results reported in publication PMC12461627, “Locking CBL TKBD in its native conformation presents a novel therapeutic opportunity in mutant CBL-dependent leukemia” (Molecular Therapy, 2025).

B1: unnamed (parent)
chain 1: MTVEEMDSWIKSWDQM
chain 2: PPGTVDKKMVEKCWKLMDKVVRLCQNPKLALKNSPPYILDLLPDTYQHLRTILSRYEGKMETLGENEYFRVFMENLMKKTKQTISLFKEGKERMYEENSQPRRNLTKLSLIFSHMLAELKGIFPSGLFQGDTFRITKADAAEFWRKAFGEKTIVPWKSFRQALHEVHPISSGLEAMALKSTIDLTCNDYISVFEFDIFTRLFQPWSSLLRNWNSLAVTHPGYMAFLTYDEVKARLQKFIHKPGSYIFRLSCTRLGQWAIGYVTADGNILQTIPHNKPLFQALIDGFREGFYLFPDGRNQNPDLTGLCEP

Variants of: B1
Experiment: phage ELISA
Settings: with partner chain of the complex shown;; read off a plot

Variant	response
chain 2 PPGTVDKKMVEKCWKLMDKVVRLCQNPKLALKNSPPYILDLLPDTYQHLRTILSRYEGKMETLGENEYFRVFMENLMKKTKQTISLFKEGKERMYEENSQPRRNLTKLSLIFSHMLAELKGIFPSGLFQGDTFRITKADAAEFWRKAFGEKTIVPWKSFRQALHEVHPISSGLEAMALKSTIDLTCNDYISVFEFDIFTRLFQPWSSLLRNWNSLAVTHPGYMAFLTYDEVKARLQKFIHKPGSYIFRLSCTRLGQWAIEYVTADGNILQTIPHNKPLFQALIDGFREGFYLFPDGRNQNPDLTGLCEP [chain 2 G260E]	0.1 OD at 450 nm
